Data from patent publication US11396668B2, “Methods of producing nor-opioid and nal-opioid benzylisoquinoline alkaloids” (priority 2016, dated 2022).

Experiments:
[1] = test system: tyrosine hydroxylase activity (wild-type RnTyrH); assay: L-DOPA and BH4 levels with antioxidant added to growth media of engineered yeast; assay type: cell-based; details: 2 mM in the media
Description: A yeast strain containing the following mutations to central metabolism (as described in U.S. Provisional Patent Application Ser. No. 61/899,496): ARO4^FBR, ΔZWF1, and GPD-TKL1 promoter replacement and expressing four chromosomally integrated genes from R. norvegicus that generate the cosubstrate tetrahydrobiopterin (pyruvoyl tetrahydropterin synthase, PTPS; sepiapterin reductase, SepR; pterin 4a-carbinolamine dehydratase, PCD; dihydropteridine reductase, QDHPR) as well as wild-type RnTyrH from a low-copy plasmid under the control of the GPD promoter was grown in selective defined media (YNB) lacking tyrosine with 2% galactose and 2 mM ascorbic acid for 96 hours.
The production of L-DOPA was measured in the media via LC-MS/MS in MRM mode with the transition 198 m/z to 152 m/z. […] In addition, the concentration BH4 intermediates were measured with LC-MS/MS in MRM mode with the following transitions: B, 238 m/z to 178 m/z; BH2, 240 m/z to 165 m/z and BH4, 242 m/z to 166 m/z.
Accordingly, FIG. 11A illustrates addition of antioxidants to culture media that improves L-DOPA production by tyrosine hydroxylase in engineered yeast strains and (B) addition of antioxidants to culture media that increase BH4 levels, in accordance with embodiments of the invention. […] The production of L-DOPA was measured in the media via LC-MS/MS in MRM mode with the transition 198 m/z to 152 m/z. […]

[2] = test system: thebaine; assay: Thebaine N-demethylase activity of BM3 variants in yeast; assay type: cell-based, yeast strains (CEN.PK2); details: 100 μM thebaine, 20 hours, buffers pH 5.0-8.5
Experimental: (§1) Specifically, BM3 variants 4H9, 7A1, and 8F11 (listed in Table 6) were integrated into the genomes of individual yeast strains (CEN.PK2) and incubated in citric acid-phosphate buffer (pH 5.0, 6.0, 7.0) and Tris-HCl buffer (pH 7.5, 8.0, 8.5) with 100 μM thebaine for 20 hours. A genetic construct which was identical except for the exclusion of the BM3 open reading frame was integrated to generate a no-enzyme control strain. […] The northebaine generated by the yeast strains was quantified by liquid chromatography mass spectrometry. The mass spectrum of northebaine (m/z 298) lacked the m/z 58 product ion consistent with a demethylated nitrogen (see FIG. 27C).
as §1, with “FIG. 27A, FIG. 27B and FIG. 27C illustrate the functional expression of BM3 variants, in accordance with embodiments of the invention. […] FIG. 27B illustrates the functional expression of BM3 variants with thebaine N-demethylase activity in yeast.” for “Specifically,”, “8F11” for “8F11 (listed in Table 6)”

[3] = test system: L-DOPA production by tyrosine hydroxylase; assay: L-DOPA production with DHFR coexpressed with wild-type RnTyrH in engineered yeast; assay type: cell-based; details: YNB lacking tyrosine, 2% dextrose, 96 hours
Description: Dihydrofolate reductase (DHFR) from R. norvegicus was yeast codon optimized, synthesized, and cloned into a low-copy plasmid under the control of a GPD promoter. DHFR was coexpressed with wild-type RnTyrH (low-copy plasmid with a GPD promoter) in a yeast strain containing the following mutations to central metabolism (as described in U.S. Provisional Patent Application Ser. No. 61/899,496): ARO4^FBR, ΔZWF1, and GPD-TKL1 promoter replacement. In addition, the strain expressed four chromosomally integrated genes from R. norvegicus that generate the cosubstrate tetrahydrobiopterin (pyruvoyl tetrahydropterin synthase, PTPS; sepiapterin reductase, SepR; pterin 4a-carbinolamine dehydratase, PCD; dihydropteridine reductase, QDHPR). The strains expressing DHFR and wild-type RnTyrH were grown in selective defined media (YNB) lacking tyrosine with 2% dextrose for 96 hours, and the production of L-DOPA was measured in the media via LC-MS/MS in MRM mode with the transition 198 m/z to 152 m/z. Expression of DHFR with wild-type RnTyrH increases L-DOPA production by 1.8-fold, as illustrated in FIG. 10. As such, FIG. 10 illustrates coexpression of dihydrofolate reductase (DHFR) that improves L-DOPA production by tyrosine hydroxylase in engineered yeast strains, in accordance with embodiments of the invention.

| Molecule | northebaine production from thebaine (N-demethylation) [2] | other results |
| --- | --- | --- |
| O=C1O[C@H]([C@@H](O)CO)C(O)=C1O [ascorbic acid] |  | improvement of L-DOPA production with wild-type RnTyrH ([1]; 96 hours): 1.8 fold; BH4 in the media ([1]; LC-MS/MS): increases BH4 in the media |
| 4H9: BM3 variant (Bacillus megaterium cytochrome P450) listed in Table 6 (protein) MTIKEMPQPKTFGELKNLPLLNTDKPVQALMKIADELGEIFKFEAPGRVTRYLSSQRLIKEACDESRFDKNLSQALKFARDFAGDGLVTSWTHEKNWKKAHNILLPSFSQQAMKGYHAMMVDIAVQLVQKWERLNADEHIEVSEDMTRLTLDTIGLCGFNYRFNSFYRDQPHPFIISMVRAADEVMNKLQRANPDDPAYDENKRQFQEDIKVMNDLVDKIIADRKARGEQSDDLLTQMLNGKDPETGEPLDDGNIRYQIIAFLIAGHETTSGLLSFALYFLVKNPHVLQKVAEEAARVLVDPVPSYKQVKQLKYVGMVLNEALRLWPTAPAFSLYAKEDTVLGGEYPLEKGDEVMVLIPQLHRDKTVWGDDVEEFRPERFENPSAIPQHAFKPFGNGQRACIGQQFALHEATLVLGMMLKHFDFEDHTNYELDIKETATLKPKGFVVKAKSKKIPLGGIPSPSTEQSAKKVRKKAENAHNTPLLVLYGSNMGTAEGTARDLADIAMSKGFAPQVATLDSHAGNLPREGAVLIVTASYNGHPPDNAKQFVDWLDQASADEVKGVRYSVFGCGDKNWATTYQKVPAFIDETLAAKGAENIADRGEADASDDFEGTYEEWREHMWSDVAAYFNLDIENSEDNKSTLSLQFVDSAADMPLAKMHGAFSTNVVASKELQQPGSARSTRHLEIELPKEASYQEGDHLGVIPRNYEGIVNRVTARFGLDASQQIRLEAEEEKLAHLPLAKTVSVEELLQYVELQDPVTRTQLRAMAAKTVCPPHKVELEALLEKQAYKEQVLAKRLTMLELLEKYPACEMKFSEFIALLPSIRPRYYSISSSPRVDEKQASITVSVVSGEAWSGYGEYKGIASNYLAELQEGDTITCFISTPQSEFTLPKDPETPLIMVGPGTGVAPFRGFVQARKQLKEQGQSLGEAHLYFGCRSPHEDYLYQEELENAQSEGIITLHTAFSRMPNQPKTYVQHVMEQDGKKLIELLDQGAHFYICGDGSQMAPAVEATLMKSYADVHQVSEADARLWLQQLEEKGRYAKDVWAG | produced northebaine at all tested pH levels above 7.0 |  |
| 7A1: BM3 variant (Bacillus megaterium cytochrome P450) listed in Table 6 (protein) MTIKEMPQPKTFGELKNLPLLNTDKPVQALMKIADELGEIFKFEAPGRVTRYLSSQRLIKEACDESRFDKNLSQAAKFARDFAGDGLVTSWTHEKNWKKAHNILLPSFSQQAMKGYHAMMVDIAVQLVQKWERLNADEHIEVSEDMTRLTLDTIGLCGFNYRFNSFYRDQPHPFIISAVRAADEVMNKLQRANPDDPAYDENKRQFQEDIKVMNDLVDKIIADRKARGEQSDDLLTQMLNGKDPETGEPLDDGNIRYQIIAFLIAGHETTSGLLSFALYFLVKNPHVLQKVAEEAARVLVDPVPSYKQVKQLKYVGMVLNEALRLWPTAPAFSLYAKEDTVLGGEYPLEKGDEVMVLIPQLHRDKTVWGDDVEEFRPERFENPSAIPQHAFKPFGNGQRACIGQQFALHEATLVLGMMLKHFDFEDHTNYELDIKETLTLKPKGFVVKAKSKKIPLGGIPSPSTEQSAKKVRKKAENAHNTPLLVLYGSNMGTAEGTARDLADIAMSKGFAPQVATLDSHAGNLPREGAVLIVTASYNGHPPDNAKQFVDWLDQASADEVKGVRYSVFGCGDKNWATTYQKVPAFIDETLAAKGAENIADRGEADASDDFEGTYEEWREHMWSDVAAYFNLDIENSEDNKSTLSLQFVDSAADMPLAKMHGAFSTNVVASKELQQPGSARSTRHLEIELPKEASYQEGDHLGVIPRNYEGIVNRVTARFGLDASQQIRLEAEEEKLAHLPLAKTVSVEELLQYVELQDPVTRTQLRAMAAKTVCPPHKVELEALLEKQAYKEQVLAKRLTMLELLEKYPACEMKFSEFIALLPSIRPRYYSISSSPRVDEKQASITVSVVSGEAWSGYGEYKGIASNYLAELQEGDTITCFISTPQSEFTLPKDPETPLIMVGPGTGVAPFRGFVQARKQLKEQGQSLGEAHLYFGCRSPHEDYLYQEELENAQSEGIITLHTAFSRMPNQPKTYVQHVMEQDGKKLIELLDQGAHFYICGDGSQMAPAVEATLMKSYADVHQVSEADARLWLQQLEEKGRYAKDVWAG | produced northebaine at all tested pH levels above 7.0 |  |
| 8F11: BM3 variant (Bacillus megaterium cytochrome P450) listed in Table 6 (protein) MTIKEMPQPKTFGELKNLPLLNTDKPVQALMKIADELGEIFKFEAPGRVTRYLSSQRLIKEACDESRFDKNLSQALKFARDFAGDGLVTSWTHEKNWKKAHNILLPSFSQQAMKGYHAMMVDIAVQLVQKWERLNADEHIEVSEDMTRLTLDTIGLCGFNYRFNSFYRDQPHPFIISMVRALDEVMNKLQRANPDDPAYDENKRQFQEDIKVMNDLVDKIIADRKARGEQSDDLLTQMLNGKDPETGEPLDDGNIRYQIITFLIAGHETTSGLLSFALYFLVKNPHVLQKVAEEAARVLVDPVPSYKQVKQLKYVGMVLNEALRLWPTAPAFSLYAKEDTVLGGEYPLEKGDEVMVLIPQLHRDKTVWGDDVEEFRPERFENPSAIPQHAFKPFGNGQRACIGQQFALHEATLVLGMMLKHFDFEDHTNYELDIKETATLKPKGFVVKAKSKKIPLGGIPSPSTEQSAKKVRKKAENAHNTPLLVLYGSNMGTAEGTARDLADIAMSKGFAPQVATLDSHAGNLPREGAVLIVTASYNGHPPDNAKQFVDWLDQASADEVKGVRYSVFGCGDKNWATTYQKVPAFIDETLAAKGAENIADRGEADASDDFEGTYEEWREHMWSDVAAYFNLDIENSEDNKSTLSLQFVDSAADMPLAKMHGAFSTNVVASKELQQPGSARSTRHLEIELPKEASYQEGDHLGVIPRNYEGIVNRVTARFGLDASQQIRLEAEEEKLAHLPLAKTVSVEELLQYVELQDPVTRTQLRAMAAKTVCPPHKVELEALLEKQAYKEQVLAKRLTMLELLEKYPACEMKFSEFIALLPSIRPRYYSISSSPRVDEKQASITVSVVSGEAWSGYGEYKGIASNYLAELQEGDTITCFISTPQSEFTLPKDPETPLIMVGPGTGVAPFRGFVQARKQLKEQGQSLGEAHLYFGCRSPHEDYLYQEELENAQSEGIITLHTAFSRMPNQPKTYVQHVMEQDGKKLIELLDQGAHFYICGDGSQMAPAVEATLMKSYADVHQVSEADARLWLQQLEEKGRYAKDVWAG | produced northebaine at all tested pH levels above 7.0 |  |
| DHFR: Dihydrofolate reductase from R. norvegicus, yeast codon optimized, expressed from low-copy plasmid (protein, UniProt Q920D2 1-187, looked up) Dihydrofolate reductase: MVRPLNCIVAVSQNMGIGKNGDLPWPLLRNEFKYFQRMTTTSSVEGKQNLVIMGRKTWFSIPEKNRPLKDRINIVLSRELKEPPQGAHFLAKSLDDALKLIEQPELASKVDMVWVVGGSSVYQEAMNQPGHLRLFVTRIMQEFESDTFFPEIDLEKYKLLPEYPGVLSEIQEEKGIKYKFEVYEKKD |  | increase of L-DOPA production [3]: 1.8 fold |
